Measurements as given in US6365373 (Genentech, dated 2002).

Key:
[1] = target: T1, human trkA receptor immunoadhesin (trkA extracellular domain fused to immunoglobulin constant domains) (human, UniProt P04629 33-423); test: competitive displacement of labeled NGF from human trkA immunoadhesin, 96-well plate
T1 construct: extracellular domain; not shown: immunoglobulin constant domains

[2] = target: T2, human trkC receptor immunoadhesin (trkC extracellular domain fused to immunoglobulin constant domains) (human, UniProt Q16288 32-429); test: competitive displacement of labeled NT-3 from human trkC immunoadhesin, 96-well plate
T2 construct: extracellular domain; not shown: immunoglobulin constant domains

T1 sequence (P04629 33-423): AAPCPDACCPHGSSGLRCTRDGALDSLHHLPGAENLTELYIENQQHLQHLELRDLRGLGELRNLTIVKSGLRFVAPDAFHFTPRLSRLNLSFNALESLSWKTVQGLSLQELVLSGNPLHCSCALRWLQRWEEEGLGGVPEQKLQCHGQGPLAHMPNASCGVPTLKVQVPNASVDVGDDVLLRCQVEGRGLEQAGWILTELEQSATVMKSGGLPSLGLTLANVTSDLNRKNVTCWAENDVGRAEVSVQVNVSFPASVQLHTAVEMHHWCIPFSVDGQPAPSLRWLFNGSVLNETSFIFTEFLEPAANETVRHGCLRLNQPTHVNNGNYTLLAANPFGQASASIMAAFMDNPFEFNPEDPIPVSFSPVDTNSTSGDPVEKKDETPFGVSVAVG

B1: NGF127 (ligand)
chain: SSSHPIFHRGEFSVCDSESLWVTDKTTATDIKGKEVMVLGEVNINNSVFKQYFFETKCRDPNPVDSGCRGIDSKHWNSQCKTTQTFVKALTMDGKQAAWRFIRIDTACVCVLSRKAVRRA
- IC50mut/IC50NGF [1]: 1 ratio
- IC50mut/IC50NGF12 [2]: 2.2 ratio
- IC50mut/IC50NT-3 [2]: 33 ratio

B2: NGFR3 (ligand)
chain: SSSHPIFHRGEFSVCDSESVWVTDKTTATDIKGKEVMVLGEVNINNSVFKQYFFETKCRDPNPVDSGCRGIDSKHWNSYCKTTQTFVKALTMDGKQAAWRFIRIDTACVCVLSRKAVRRA
- IC50mut/IC50NGF [1]: 1.6 ratio
- IC50mut/IC50NGF12 [2]: 2.5 ratio
- IC50mut/IC50NT-3 [2]: 37.2 ratio

B3: NGF130 (ligand)
chain: SSSHPIFHRGEFSVCDSVSLWVTDKTTATDIKGKEVMVLGEVNINNSVFKQYFFETKCRDPNPVDSGCRGIDSKHWNSYCTTTQTYVKALTMDGKQAAWRFIRIDTACVCVLSRKAVRRA
- IC50mut/IC50NGF [1]: 1 ratio
- IC50mut/IC50NGF12 [2]: 0.3 ratio
- IC50mut/IC50NT-3 [2]: 4.5 ratio

B4: NGF131 (ligand)
chain: SSSHPIFHRGEFSVCDSVSLWVTDKTTAIDIKGKEVMVLGEVNINNSVFKQYFFETKCRDPNPVDSGCRGIDSKHWNSYCTTTQTYVKALTMDGKQAAWRFIRIDTACVCVLSRKAVRRA
notes: also called NGF31
- IC50mut/IC50NGF [1]: 1.1 ratio
- IC50mut/IC50NGF12 [2]: 0.2 ratio
- IC50mut/IC50NT-3 [2]: 3.3 ratio

B5: NGF1234 (ligand)
chain: SSSHPIFHRGEFSVCDSESLWVTDKTTAIDIKGKEVMVLGEVNINNSVFKQYFFETKCRDPNPVDSGCRGIDSKHWNSQCKTTQTYVKALTMDGKQAAWRFIRIDTACVCVLSRKAVRRA
- IC50mut/IC50NGF [1]: 1.3 ratio
- IC50mut/IC50NGF12 [2]: 0.3 ratio
- IC50mut/IC50NT-3 [2]: 4.9 ratio

B6: NGFR2 (ligand)
chain: SSSHPIFHRGEFSVCDSVSLWVTDKTTATDIKGKEVMVLGEVNINNSVFKQYFFETKCRDPNPVDSGCRGIDSKHWNSYCKTTQTFVKALTMDGKQAAWRFIRIDTACVCVLSRKAVRRA
- IC50mut/IC50NGF [1]: 0.9 ratio
- IC50mut/IC50NGF12 [2]: 0.7 ratio
- IC50mut/IC50NT-3 [2]: 10.5 ratio
